The results in this text go back to article PMC5207208 (Science (New York, N.Y.), 2016).

For one experiment, the target named is Nup192 (Chaetomium thermophilum, UniProt G0S4T0 1-1756). Put plainly: SEC-MALS. In general terms: SEC sorts molecules by how far they enter the pores of the column.
Another experiment has as its target Nup188 (Chaetomium thermophilum, UniProt G0SFH5 1-1858). The experiment is described as follows: SEC-MALS.

Nup188, sequence (G0SFH5 whole entry): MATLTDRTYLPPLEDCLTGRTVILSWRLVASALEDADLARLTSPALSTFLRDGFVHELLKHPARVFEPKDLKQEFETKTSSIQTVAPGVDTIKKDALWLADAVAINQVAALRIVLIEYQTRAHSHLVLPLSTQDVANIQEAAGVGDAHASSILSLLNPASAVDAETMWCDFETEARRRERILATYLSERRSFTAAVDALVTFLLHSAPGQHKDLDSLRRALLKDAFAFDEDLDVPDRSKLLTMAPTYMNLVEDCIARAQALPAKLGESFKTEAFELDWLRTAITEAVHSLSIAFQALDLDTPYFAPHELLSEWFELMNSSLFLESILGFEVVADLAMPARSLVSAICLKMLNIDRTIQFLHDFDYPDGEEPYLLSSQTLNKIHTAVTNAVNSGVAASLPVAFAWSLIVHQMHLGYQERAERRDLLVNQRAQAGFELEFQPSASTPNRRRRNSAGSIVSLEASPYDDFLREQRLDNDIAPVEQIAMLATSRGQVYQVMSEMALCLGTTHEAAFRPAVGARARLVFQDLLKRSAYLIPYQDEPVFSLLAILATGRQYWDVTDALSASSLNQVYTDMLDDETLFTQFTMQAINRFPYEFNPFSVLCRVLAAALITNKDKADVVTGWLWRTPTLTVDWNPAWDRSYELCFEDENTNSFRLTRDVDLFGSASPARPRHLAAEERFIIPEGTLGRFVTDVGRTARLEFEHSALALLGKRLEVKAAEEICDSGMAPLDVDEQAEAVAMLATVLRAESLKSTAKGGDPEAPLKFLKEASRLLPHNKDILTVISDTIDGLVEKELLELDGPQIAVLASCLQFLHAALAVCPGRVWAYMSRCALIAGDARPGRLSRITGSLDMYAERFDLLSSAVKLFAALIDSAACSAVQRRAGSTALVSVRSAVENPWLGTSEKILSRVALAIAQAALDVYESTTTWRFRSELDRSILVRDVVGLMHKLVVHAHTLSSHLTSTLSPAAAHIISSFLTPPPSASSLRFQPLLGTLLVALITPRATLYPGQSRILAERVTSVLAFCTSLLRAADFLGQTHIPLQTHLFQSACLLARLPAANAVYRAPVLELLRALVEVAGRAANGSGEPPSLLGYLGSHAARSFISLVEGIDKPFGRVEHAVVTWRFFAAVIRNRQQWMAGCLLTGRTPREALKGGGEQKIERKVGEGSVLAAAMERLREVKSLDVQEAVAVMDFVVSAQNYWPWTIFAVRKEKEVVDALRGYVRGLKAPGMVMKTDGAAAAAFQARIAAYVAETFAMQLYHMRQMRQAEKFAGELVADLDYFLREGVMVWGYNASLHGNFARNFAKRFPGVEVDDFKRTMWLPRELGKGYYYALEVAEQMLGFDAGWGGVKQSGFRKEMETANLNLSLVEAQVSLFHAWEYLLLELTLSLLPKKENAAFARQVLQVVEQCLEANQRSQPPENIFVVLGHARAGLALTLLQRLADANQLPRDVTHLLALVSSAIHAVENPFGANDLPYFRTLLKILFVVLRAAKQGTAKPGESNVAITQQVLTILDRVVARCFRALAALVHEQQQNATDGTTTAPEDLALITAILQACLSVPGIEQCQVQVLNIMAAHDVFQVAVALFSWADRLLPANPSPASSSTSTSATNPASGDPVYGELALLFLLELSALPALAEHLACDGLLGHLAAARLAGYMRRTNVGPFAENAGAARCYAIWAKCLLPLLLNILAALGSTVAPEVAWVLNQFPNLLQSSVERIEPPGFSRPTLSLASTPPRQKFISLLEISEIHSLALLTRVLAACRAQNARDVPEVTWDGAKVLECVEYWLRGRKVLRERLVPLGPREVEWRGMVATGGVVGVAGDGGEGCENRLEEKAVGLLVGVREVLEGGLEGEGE
Nup192, sequence (G0S4T0 whole entry): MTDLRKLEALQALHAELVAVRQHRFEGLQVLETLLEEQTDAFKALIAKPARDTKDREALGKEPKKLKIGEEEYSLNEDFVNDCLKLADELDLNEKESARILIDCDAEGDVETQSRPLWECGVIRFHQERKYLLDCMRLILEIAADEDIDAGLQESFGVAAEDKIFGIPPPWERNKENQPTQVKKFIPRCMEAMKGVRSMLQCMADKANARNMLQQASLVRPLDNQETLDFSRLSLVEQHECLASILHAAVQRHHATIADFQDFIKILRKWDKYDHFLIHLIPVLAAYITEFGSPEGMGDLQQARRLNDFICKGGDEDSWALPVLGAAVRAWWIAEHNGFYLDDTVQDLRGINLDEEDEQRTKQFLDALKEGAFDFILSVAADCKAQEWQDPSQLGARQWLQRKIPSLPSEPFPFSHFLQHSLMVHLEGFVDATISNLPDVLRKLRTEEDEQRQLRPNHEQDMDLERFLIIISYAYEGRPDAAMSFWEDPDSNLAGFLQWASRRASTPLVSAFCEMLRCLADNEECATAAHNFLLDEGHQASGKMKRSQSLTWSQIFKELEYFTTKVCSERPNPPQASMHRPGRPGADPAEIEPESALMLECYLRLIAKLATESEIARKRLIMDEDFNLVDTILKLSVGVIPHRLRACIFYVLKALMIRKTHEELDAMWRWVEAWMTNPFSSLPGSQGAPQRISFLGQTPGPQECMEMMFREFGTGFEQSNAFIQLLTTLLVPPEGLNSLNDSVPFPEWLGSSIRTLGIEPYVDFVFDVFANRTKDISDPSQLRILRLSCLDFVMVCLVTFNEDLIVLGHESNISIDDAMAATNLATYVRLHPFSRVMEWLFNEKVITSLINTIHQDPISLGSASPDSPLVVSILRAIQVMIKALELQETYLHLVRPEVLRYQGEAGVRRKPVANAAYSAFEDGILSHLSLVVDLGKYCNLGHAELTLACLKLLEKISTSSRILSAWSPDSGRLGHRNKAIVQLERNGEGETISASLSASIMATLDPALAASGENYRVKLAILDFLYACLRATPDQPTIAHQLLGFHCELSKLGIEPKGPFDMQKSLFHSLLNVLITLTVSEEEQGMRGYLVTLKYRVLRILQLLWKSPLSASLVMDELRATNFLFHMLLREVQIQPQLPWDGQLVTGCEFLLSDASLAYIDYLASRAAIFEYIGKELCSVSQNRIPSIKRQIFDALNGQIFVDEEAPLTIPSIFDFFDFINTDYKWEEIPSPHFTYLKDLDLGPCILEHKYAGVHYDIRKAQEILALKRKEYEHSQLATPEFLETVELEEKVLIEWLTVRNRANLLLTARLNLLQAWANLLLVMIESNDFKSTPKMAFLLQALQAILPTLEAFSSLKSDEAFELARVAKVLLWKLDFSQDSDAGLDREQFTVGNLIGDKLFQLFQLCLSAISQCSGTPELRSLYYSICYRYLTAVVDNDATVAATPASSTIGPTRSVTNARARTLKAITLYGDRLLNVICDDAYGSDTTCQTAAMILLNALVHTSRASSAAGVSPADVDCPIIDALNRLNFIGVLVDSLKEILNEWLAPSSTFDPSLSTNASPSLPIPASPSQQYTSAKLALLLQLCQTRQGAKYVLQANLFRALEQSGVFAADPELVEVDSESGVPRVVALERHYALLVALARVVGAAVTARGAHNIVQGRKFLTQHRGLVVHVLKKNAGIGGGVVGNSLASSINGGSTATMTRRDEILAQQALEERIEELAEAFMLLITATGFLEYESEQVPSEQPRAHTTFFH

B1: Nup145N fragment (residues 606–683) (domain or fragment, Chaetomium thermophilum, UniProt G0SAK3 606-683, looked up)
chain: DDKIQNPGPLATPLSGKAKVKSRSILPMYKLSPANASRLVTTPQKRAYGFSFSAYGSPTSPSSSASSTPGAFGQSILS
In the case of B1, the binding result in the experiment with Nup192 is reported as “binds”. On to DFDAFLEENVTLEWEAQRKRIYQHFGIK (peptide, UniProt G0S024 274-301, looked up) [Nic96 fragment (residues 274–301)], for which the binding result with Nup188 is on record as “binds”.

B2: Nup145N fragment (residues 606–750) (domain or fragment, Chaetomium thermophilum, UniProt G0SAK3 606-750, looked up)
chain: DDKIQNPGPLATPLSGKAKVKSRSILPMYKLSPANASRLVTTPQKRAYGFSFSAYGSPTSPSSSASSTPGAFGQSILSSSINRGLNKSISASNLRRSLNVEDSILQPGAFSANSSMRLLGGPGSHKKLVINKDMRTDLFSPPNKD
With B2, the binding result with Nup188 is recorded as “binds”.

As to EWEAQRKRIYQHFGIK (peptide, UniProt G0S024 286-301, looked up) [Nic96 fragment (residues 286–301)], in the experiment with Nup192, the binding result is recorded as “binds”.
